Test results published in patent US12692524B2, “Sialyltransferases and their use in producing sialylated oligosaccharides” (Chr. Hansen A/S, priority 2017, dated 2026).

B1: SiaT16: sialyltransferase of Haemophilus ducreyi 35000HP, acc. AAP95068, SEQ ID NO: 27 (protein, listed as Haemophilus ducreyi)
chain: MLIQQNLEIYLDYATIPSLACFMHFIQHKDDVDSIRLFGLARFDIPQSIIDRYPANHLFYHNIDNRDLTAVLNQLADILAQENKRFQINLHLNLFHSIDLFFAIYPIYQQYQHKISTIQLQLYDDGSEGIVTQHSLCKIADLEQLILQHKNVLLELLTKGTANVPNPTLLRYLWNNIIDSQFHLISDHFLQHPKLQPLKRLLKRYTILDFTCYPRFNAEQKQLLKEILHISNELENLLKLLKQHNTFLFTGTTAFNLDQEKLDLLTQLHILLLNEHQNPHSTHYIGNNYLLLIKGHANSPALNHTLALHFPDAIFLPANIPFEIFAMLGFTPNKMGGFASTSYINYPTENINHLFFLTSDQPSIRTKWLDYEKQFGLMYSLLAMQKINEDQAFMCTIHN
B2: SiaT17: sialyltransferase of Photobacterium phosphoreum JT-ISH-467, acc. BAF63530, SEQ ID NO: 8 (protein, listed as Photobacterium phosphoreum)
chain: MGCNSDSKHNNSDGNITKNKTIEVYVDRATLPTIQQMTQIINENSNNKKLISWSRYPINDETLLESINGSFFKNRPELIKSLDSMILTNEIKKVIINGNTLWAVDVVNIIKSIEALGKKTEIELNFYDDGSAEYVRLYDFSRLPESEQEYKISLSKDNIQSSINGTQPFDNSIENIYGFSQLYPTTYHMLRADIFETNLPLTSLKRVISNNIKQMKWDYFTTFNSQQKNKFYNFTGFNPEKIKEQYKASPHENFIFIGTNSGTATAEQQIDILTEAKKPDSPIITNSIQGLDLFFKGHPSATYNQQIIDAHNMIEIYNKIPFEALIMTDALPDAVGGMGSSVFFSLPNTVENKFIFYKSDTDIENNALIQVMIELNIVNRNDVKLISDLQ
B3: SiaT15: sialyltransferase of Haemophilus ducreyi 35000HP, acc. AF101047, SEQ ID NO: 14 (protein, listed as Haemophilus ducreyi)
chain: MKEIAIISNQRMFFLYCLLTNKNVEDVFFIFEKGAMPNNLTSISHFIVLDHSKSECYDFFYFNFISCKYRLRGLDVYGADHIKGAKFFLERHRFFVVEDGMMNYSKNMYAFSLFRTRNPVILPGGFHPNVKTIFLTKDNPIPDQIAHKREIINIKTLWQAKTATEKTKILSFFEIDMQEISVIKNRSFVLYTQPLSEDKLLTEAEKIDIYRTILTKYNHSQTVIKPHPRDKTDYKQLFPDAYVMKGTYPSELLTLLGVNFNKVITLFSTAVFDYPKEKIDFYGTAVHPKLLDFFD
B4: SiaT22: sialyltransferase of Streptococcus entericus, acc. WP_018369230, SEQ ID NO: 13 (protein, listed as Streptococcus entericus)
chain: MKKVYFCHTVYHLLITLCKISVEEQVEIIVFDTVSNHELIVQKIRDVFVNTTVLFAEQNTDFSILEIDRATDIYVFNDWTPIGAYLRKNKLFYHLIEDGYNYHEYNVYANALTMKRRLLNFVLRREEPSGFSRYVRSIEVNRVKYLPNDCRKSKWVEKPRSALFENLVPEHKQKIITIFGLENYQDSLRGVLVLTQPLVQDYWDRDITTEEEQLEFYRQIVESYGEGEQVFFKIHPRDKVDYSSLTNVIFLKKNVPMEVYELIADCHFTKGITHSSTALDFLSCVDKKITLKQMKANS
B5: SiaT24: sialyltransferase of Avibacterium paragaffinarum, acc. WP_021724759, SEQ ID NO: 9 (protein, listed as Avibacterium paragallinarum)
chain: MRKIITFFSLFFSISAWCQKMEIYLDYASLPSLNMILNLVENKNNEKVERIIGFERFDFNKEILNSFSKERIEFSKVSILDIKEFSDKLYLNIEKSDTPVDLIIHTNLDHSVRSLLSIFKTLSPLFHKINIEKLYLYDDGSGNYVDLYQHRQENISAILIEAQKKLKDALENRETDTDKLHSLTRYTWHKIFPTEYILLRPDYLDIDEKMQPLKHFLSDTIVSMDLSRFSHFSKNQKELFLKITHFDQNIFNELNIGTKNKEYKTFIFTGTTTWEKDKKKRLNNAKLQTEILESFIKPNGKFYLGNDIKIFFKGHPKGDDINDYIIRKTGAEKIPANIPFEVLMMTNSLPDYVGGIMSTVYFSLPPKNIDKVVFLGSEKIKNENDAKSQTLSKLMLMLNVITPEQIFFEEMPNPINF
B6: SiaT21: sialyltransferase of Vibrio harveyi, acc. WP_017817635, SEQ ID NO: 21 (protein, listed as Vibrio harveyi)
chain: MDSSPENTSSTLEIYIDSATLPSLQHMVKIIDEQSGNKKLINWKRYPIDDELLLDKINALSFSDTTDLTRYMESILLIGDIKRVVINGNSLSNYNIVGVMRSINALGLDLDVEINFYDDGSAEYVRLYNFSQLPEAERELLVSMSKNNILAAVNGIGSYDSGSPENIYGFAQIYPATYHMLRADIFDTDLEIGLIRDILGDNVKQMKWGQFLGFNEEQKELFYQLTSFNPDKIQAQYKESPNKNFVFVGTNSRSATAEQQINIIKEAKKLDSEIIPNSIDGYDLFFKGHPSATYNQQIVDAHDMTEIYNRTPFEVLAMTSSLPDAVGGMGSSLFFSLPKTVETKFIFYKSGTDIESNALIQVMLKLGIITDEKVRFTTDIK

Experiments:
[1] = In vivo screening in E. coli #1363/#1730 with lactose as acceptor, sialyllactose identified by TLC; type: cell-based, Escherichia coli BL21(DE3); details: 1.5 mM lactose, 72 to 96 hours, qualitative via TLC
Protocol: Escherichia coli BL21(DE3) #1363 and #1730 harbouring plasmids encoding for 100 sialyltransferases were grown at 30° C. in 100 ml shake flasks filled with 20 ml of mineral salts medium (Samain et al., J. Biotech. 1999, 72:33-47) supplemented with 2% (wt/vol) glucose, ampicillin 100 μg ml^−1, kanamycin 15 μg ml^−1 and zeocin 40 μg ml^−1. When the cultures reached an OD600 of 0.1 to 0.3, gene expression was induced by addition of 0.3 mM IPTG. After an incubation for one hour, 1.5 mM lactose was added to #1363 cultures whereas 1.5 mM lactose as well as 1.5 mM sialic acid was added to #1730 cultures. The incubation continued for 72 to 96 hours. Then, cells were harvested by centrifugation and mechanically disrupted in a defined volume using glass beads. Subsequently, samples were applied to thin layer chromatography (TLC) on Silica Gel 60 F254 (Merck KGaA, Darmstadt, Germany). A mixture of butanol:acetone:acetic acid:H2O (35/35/7/23 (v/v/v/v)) was used as mobile phase. For detection of the separated substances, the TLC plate was soaked with thymol reagent (0.5 g thymol solved in 95 ml ethanol, 5 ml sulfuric acid added) and heated.
In the entire screening, thirty two genes were identified to encode for α-2,3-sialyltransferases, thus producing 3′-SL. 19 enzymes synthesized 6′-SL and were depicted as α-2,6-sialyltransferases. An α-2,3- as well as an α-2,6-sialyltransferase activity could only be observed for 3 enzymes. […] The screening appeared highly accurate since the described activities of extensively characterized sialyltransferases, e. g. […] Regarding the product formation, the experimental setting allowed a semi-quantitative comparison of the screened enzymes. But to achieve deeper knowledge about their kinetic properties, the 3 potentially best performing α-2,3- and α-2,6-sialyltransferases were applied to in vitro assays.

[2] = In vitro sialylation of LNT by protein extracts, LST-a/-b quantified by LC-MS/MS; type: biochemical; details: 5 mM LNT, 10 mM CMP-Neu5Ac, 16 hours, LC-MS/MS; relative quantity; n.d.: not detectable
Protocol: Escherichia coli BL21(DE3) harbouring plamids encoding for 100 sialyltransferases were grown at 30° C. in 100 ml shake flasks filled with 20 ml of 2YT medium supplemented with ampicillin 100 μg ml^−1. When the cultures reached an OD600 of 0.1 to 0.3, gene expression was induced by addition of 0.3 mM IPTG and the incubation was continued for 12 to 16 hours. Cells were harvested by centrifugation and mechanically disrupted in a defined volume of 50 mM Tris-HCl pH7.5 using glass beads. The protein extract was kept on ice until the assay started. The in vitro assay was carried out in a total volume of 25 μl including 50 mM Tris-HCl pH7.5, 5 mM MgCl2, 10 mM CMP-Neu5Ac and 5 mM LNT. The assay started with the addition of 3 μl protein extract and continued for 16 hours. Product formation was determined by mass spectrometry.
Mass spectrometry analysis was performed by MRM (multiple reaction monitoring) using a LC Triple-Quadrupole MS detection system. Precursor ions are selected and analyzed in quadrupole 1, fragmentation takes place in the collision cell using argon as CID gas, selection of fragment ions is performed in quadrupole 3. Chromatographic separation of lactose, 3′-Sialyllactose and 6′-Sialyllactose after dilution of culture supernatant 1:100 with H2O (LC/MS Grade), was performed on a XBridge Amide HPLC column (3.5 μm, 2.1×50 mm (Waters, USA) with a XBridge Amide guard cartridge (3.5 μm, 2.1×10 mm) (Waters, USA). Column oven temperature of the HPLC system was 50° C. The mobile phase was composed of acetonitrile:H2O with 10 mM ammonium acetate. A 1 μl sample was injected into the instrument; the run was performed for 3.60 min with a flow rate of 400 μl/min. 3′-Sialyllactose and 6′-Sialyllactose were analyzed by MRM in ESI positive ionization mode. The mass spectrometer was operated at unit resolution. Sialyllactose forms an ion of m/z 656.2 [M+Na]. The precursor ion of Sialyllactose was further fragmented in the collision cell into the fragment ions m/z 612.15, m/z 365.15 and m/z 314.15. Collision energy, Q1 and Q3 Pre Bias were optimized for each analyte individually. Chromatographic separation of lactose, LNT-II, LNT and LST-a or -b after dilution of particle-free biocatalysis-reaction or crude extract, respectively, 1:50 with H2O (LC/MS Grade), was performed on a XBridge Amide HPLC column (3.5 μm, 2.1×50 mm (Waters, USA) with a XBridge Amide guard cartridge (3.5 μm, 2.1×10 mm) (Waters, USA). Column oven was run at 35° C. The mobile phase was composed of acetonitrile:H2O with 0.1% ammonium hydroxide. A 1 μl sample was injected into the instrument; the run was performed for 3.50 min with a flow rate of 300 μl/min. Lactose, LNT-II, LNT as well as LST-a and -b were analyzed by MRM in ESI negative ionization mode. The mass spectrometer was operated at unit resolution. Lactose forms an ion of m/z 341.00 [M−H]. The precursor ion of Lactose was further fragmented in the collision cell into the fragment ions m/z 179.15, m/z 161.15 and m/z 101.05. LNT-II forms an ion of m/z 544.20 [M−H]. The precursor ion of LNT-II was further fragmented into the fragment ions m/z 382.10, m/z 161.00 and m/z 112.90. LNT forms an ion of m/z 706.20 [M−H]. The precursor ion of LNT was further fragmented into the fragment ions m/z 382.10, m/z 202.10 and m/z 142.00. LST-a and -b forms an ion of m/z 997.20 [M−H]. The precursor ion of LST-a and-b was further fragmented into the fragment ions m/z 290.15, m/z 202.15 and m/z 142.15. Collision energy, Q1 and Q3 Pre Bias were optimized for each analyte individually. Quantification methods were established using commercially available standards (Carbosynth, Compton, UK).
Twenty eight genes were identified to produce LST-a whereas only 6 enzymes synthesized LST-b. […] Irrespectively of the protein overexpression level, sialyltransferases that produced best were selected for determination of Km and Vmax.

| Molecule | Production of sialyllactose in-vivo [1] | Relative efficacy of sialyltransferases regarding in-vitro production of sialyllacto-N-tetraoses: LST-a [2] |
| --- | --- | --- |
| B1 | 3′-SL | 1 |
| B2 | 3′-SL | 1.24 × 10^3 |
| B3 | 3′-SL | 204 |
| B4 | 3′-SL | 564 |
| B5 | 3′-SL | 835 |
| B6 | 3′-SL | 12 |
